This note sets out measurements from the nanobody polyreactivity screen of Harvey et al. (2022).

The series in a line: yeast display, Sf9 membrane polyspecificity reagent, FACS + sequencing; frameworks hold sequencing errors. In outline:
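Galactose-induced (36–48 hours) yeast carrying a synthetic nanobody display library were exposed to 10% biotinylated, detergent-solubilized Sf9 membrane reagent at 4 °C for 1 hour. FACS followed streptavidin microbead enrichment, using low and high (top ~1%) gates for expression (anti-HA) and reagent binding (streptavidin). Colony PCR, MiSeq 2 × 250 sequencing and CDR-length filtering followed. Labels for polyreactivity reflect the gate of origin.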
“QVQHVESGGGLLQAGGSLRLSCAASGRTFGRYAMGWYRPAPGKERELVADIDYGGGSTYYADSVKGRFTISRDNAKNTFYLQMNSLKPEDTAVYYCNAGRDIGWGYHMDYWGQGTQVTVSS”: the “polyreactivity (PSR sort gate)” value is “high polyreactivity”.
In the case of “QVQHVESGGGLVHAGCRLRLSCAASGRTFIKYAMGWYRQAPGTERELVAGISGGGASTYYADSVKGRFTISRDNAKNTVYLQMNSLKPEETAVYYFAKLSPRGRRYDYWGQGTQVTVSS” it was “high polyreactivity”; in that of “QVQHVESGGGLVHAGGSLRLSCAASGTTFYFNPMGWSRQAPGKERELVASITWRGVSTYYADSVKGRFTISRDNAKNTVYLHMNSLNPEDTAVYYCAVAAGIPQRRFYYWGQGTQVTVSS”, “high polyreactivity”; in that of “QVQHVESGGGLVKAGGSLRLSCAATGSIFSPYAMGWYILAPGKERELVAAISRSGRTHYADSVKGRFTISRDNAKHTVYLQMNSLKADDTAVYFCAAGVVYGYYYWGQGTQVTVSS”, “high polyreactivity”.
With “QVQHVESGGGLVQAGASLRLSCAASGFIFPSYVKGWYRQAPWKERDLVATISRSGGSTYYADSVKGRFTISRDNAKNTVYLQMNSLKPEDTAVYYCAAYPYSYLQLMDYWGQGTQVTVSS”, the “polyreactivity (PSR sort gate)” value is “high polyreactivity”.
Take “QVQHVESGGGLVQAGCSLRLSCAASGFTFYSYAMGWYSQTPGKERELVASISRTGGGTYYADSVKGSFTISRDNAKNTVSLQMNSLIPVDTAVYYCNASPNIRVRYYYRKYDYWGQGTQVTVSS”: the “polyreactivity (PSR sort gate)” value is reported as “high polyreactivity”.
Consider “QVQHVESGGGLVQAGCSLRLSCAASGRTFSSNAMGWYRQAHGKVRELVAVISSGGSTYYADSVKGRFTISRDNAKNTVYLEMYSMKPEDTAVYICAAAVGPSGYYYESDYWGQGTQETVSS”, for which the “polyreactivity (PSR sort gate)” value was “high polyreactivity”.
Turning to “QVQHVESGGGLVQAGGRLRLRCAASGSTFDDNAKGWYIHAPGKERELVAGISDGDDSTNYADSVKGRFTISRDNAKNTVYFQMNRLKPEDTAVYYCNARYVRTYGVRFGYDYWGQGTQLTVSS”, the “polyreactivity (PSR sort gate)” value is “low polyreactivity”.
In the case of “QVQHVESGGGLVQAGGRLRLSCAASGGIYYYAMGWYRQAPGKERELVAAISSGGGNTNYADSVKGRFTISRDNAKNTVYLQMNSLKPEDTAVYYCATDGFIPTYSYTEIGYDYWGQGTQVTVSS” it was “low polyreactivity”.
In the case of “QVQHVESGGGLVQAGGRLRLSCAASGSTFQLYAMGWYRQAPGKERELVASISWSGGSTYYADSVTGRFTISRDNAKNTVYLQMNSLKPEDTAVYYCNADFWWRYRPGAVFRSYGYWGQGTQVTVSS” it was “low polyreactivity”.
In the case of “QVQHVESGGGLVQAGGRLRLSCPATGSTFTWYALASYRQAPGKERELVAAISRGGSTNYADSVKGRFTISRDNAKNSVYLQMNSLIPEDTAVYYCAAESYWRDVYWGQGTQVTVSS” it was “low polyreactivity”; in that of “QVQHVESGGGLVQAGGSLPLSGAASGLTFTRYAMGWYRQAPGKESELVAAISKNGGSTYYADSVTGRFTISRDNAKYTVYLQMNSLKPEDTAVYYCAARRSTSYPAGYDYWVQGTQVTVSS”, “high polyreactivity”; in that of “QVQHVESGGGLVQAGGSLRLCCAATGNTFGINAMGWYRQAPGKERELDASITGSAGSTYYADSVKGRFTISRDNAKNTVYLQMNSLKPEDTAVYYCNAGARGVMSQPWVIKYYYWGQGTQGTVSS”, “high polyreactivity”.
For “QVQHVESGGGLVQAGGSLRLRCAASARTFLANAMGWYRQAPGKERELLAAITYSGGRTYYADSVKGRFTISRDNAKNTVYLQMNSLKPEDTAVYYCAAEGKVTSQYTMDYWGLGTQVTVSS”, the “polyreactivity (PSR sort gate)” value is given as “high polyreactivity”.
In the case of “QVQHVESGGGLVQAGGSLRLRCAASGSTFQYNPMGWYRQAPGKERELVASITRGGNTNYADSVKGRFTISRDNAKNTVYLQMNSLKPEDTAVYYCAARSTYRVSHVDYWGQGTQVTVSS”, the “polyreactivity (PSR sort gate)” value was “low polyreactivity”.
In the case of “QVQHVESGGGLVQAGGSLRLSCAASALTFSSNAMGWYRQAPGKERELVAVITNGGSTNYADSVKGRLTISRDNAKNTVYLQMNSLKPEDTAVYYCAIDGGPAQDIGMDYWGQGTHVTVSS” it was “low polyreactivity”; in that of “QVQHVESGGGLVQAGGSLRLSCAASGDIFRPNAMGWYRQAPGKERELVAAITRSGGTTYYADSVKGRFTISRDYAKNTVYLQMNSLNPEDTAVYYCAARGLQYYRYDYWGQGTQVTVSS”, “low polyreactivity”; in that of “QVQHVESGGGLVQAGGSLRLSCAASGFIFARNAMGWYRQAPGKERELVAAITWSGGSTYADSVKGRFTISRDNAKNTVYLQMNSLKPEDTAVYYCAADSYPAYLGFVGFDYWGQGTQVTVSS”, “low polyreactivity”.
For “QVQHVESGGGLVQAGGSLRLSCAASGFIFPTYAMGWYRQAPGKERELVATITTNAGGTHYADSVKGRFTISRDNAKNTVYLQMNSLKPEDTAVYYCAAKQYRPKQRKYWTRIYDYWGQGTQVTVSS”, the “polyreactivity (PSR sort gate)” value is recorded as “low polyreactivity”.
Consider “QVQHVESGGGLVQAGGSLRLSCAASGFIFRRYAMGWYRQAPGKERELVAAISWRSGSTYYADSVKGRFTISRDNAKNTVYLQMNSLKPEDTAVYYCAAKDQATYQLNYWGQGTQVTVSS”, for which the “polyreactivity (PSR sort gate)” value is on record as “high polyreactivity”.
As for “QVQHVESGGGLVQAGGSLRLSCAASGFIFRRYPLGWYRQAPGKERELVASISSGGNTDYADSVKGRFTISRDNAKNTVYLQMKSLNPEDTAVYYCNARVRWYPGYDYWGQGTQVTVSS”, the entry is “high polyreactivity”; as for “QVQHVESGGGLVQAGGSLRLSCAASGFIFWYYTMGWYRQAPGKVRELLATISGGGSTYYADSVKGRFTISRDNAKNTVYLQMNSLKPEDTAVYYCNAVIRTRRVGYGDGVDYWGQGTQVTVSS”, “high polyreactivity”; as for “QVQHVESGGGLVQAGGSLRLSCAASGFTFAYYAKGWYRQAPGKERELVARISSGGSTYYADSVKGRFTISRDNAKNTVYLQMNSLKPEDTAVYYCAARSYYISPWRFDYWGQGTQVTVSS”, “high polyreactivity”.
Take “QVQHVESGGGLVQAGGSLRLSCAASGFTFSYNAMGWNRQAPGKERELVAAISATGDGNTYYADSVKGRFTISRDNAKNTVYLQMNSLNPEDTAVYFCNRLPQYALPYRHNGYWGQGTQVTVSS”: the “polyreactivity (PSR sort gate)” value is “low polyreactivity”.
For the sequence “QVQHVESGGGLVQAGGSLRLSCAASGFTFWYYDMGWSRQAPGKERELVAAITNGGRTYYADSVKGRFTISRDNAKNTVYLQMNSLKPEDTAVYYCAAGRWRSGRAEDYWGQGTQVTVSS”, the “polyreactivity (PSR sort gate)” value was “high polyreactivity”.
In the case of “QVQHVESGGGLVQAGGSLRLSCAASGFTIPNYAMGLYRQAPGKERELVAAITSGGGRTNYADSVKGRFTISRDNAKNTVDLQMNSLKPEDTAVYDCAKTRLRGSEFGFWGQGTQVTVSS” it was “low polyreactivity”; in that of “QVQHVESGGGLVQAGGSLRLSCAASGGIFERKDMGWYRQAHGKERQLVAGISSVGSTNYADSVKWRFTISRDNAKNTVYLQMNSLKPEDTAVYYCAAKRVRALYVGSEGGYWGQGTQVTVSS”, “low polyreactivity”.
In the case of “QVQHVESGGGLVQAGGSLRLSCAASGGIYYQNAMGWYRQAPGKERELVAAISGRGGRTYYADSVKGRFTISRDNAKNTVYLQMNSLKPEDTAVYYCNADQATFSLYHEMDYWGQGTQVTVSS” it was “low polyreactivity”.
For the sequence “QVQHVESGGGLVQAGGSLRLSCAASGGTFADYTMGWYRQAPGKERELVAAITSSGGSTYYADSVKGRFTISRDNAKNTVYLQMNSLKTEDTAVYYCAALGYVAMGYWGQGTQVTVSS”, the “polyreactivity (PSR sort gate)” value is reported as “high polyreactivity”.
As to “QVQHVESGGGLVQAGGSLRLSCAASGIIFPYNAMGWYRQAPGKERELVAAITGGGSTYYADSVKGRFTISRDNAKNTVYLQMNSLKPEDTAVYYCAADRSGPGYDYWGQGTQVTVSS”, the “polyreactivity (PSR sort gate)” value is “low polyreactivity”.
